Data taken from PMC11784312 (2024).

Columns and labels:
Test in all cases: ELISA
[1] = target: hemagglutinin of A/chicken/Guangdong/SD008/2017 (H7N9) (influenza A virus …)
[2] = target: hemagglutinin of A/duck/Guangxi/SDY129/2014 (H7N9) (influenza A virus …)
[3] = target: hemagglutinin of A/chicken/Yunnan/SD193/2017 (H7N9) (influenza A virus …)
[4] = target: hemagglutinin of A/pigeon/Shanghai/S1069/2013 (H7N9) (influenza A virus …)

Binder | EC50 [1] | EC50 [2] | EC50 [3] | EC50 [4]
1H9 neutralizing antibody (antibody, V domains shown) VH: VQLQESGPGLVKPSQSLSLTCTVTGYSITSDYTWNWIRQFPGNKLEWMGYITYSDTTSYNPSLKSRISITRDTSKNQFFLQLNSVTTEDTATYYCARSDGWYGFAYWGQGTLVTVSA VL: DIQMNQSPSSLSASLGDTITITCHASQNINVWLSWYQQKPGNIPKLLIYKAFDLHTGVPSRFSGSGSGTGFTLTISSLQPEDIATYYCQQGQTYPFTFGGGTKLEIK | 0.0861 µg/mL | 0.0808 µg/mL | 0.195 µg/mL | 0.0837 µg/mL
2D7 neutralizing antibody (antibody, V domains shown) VH: VQLQESGPGLVKPSQSLSLTCTVTGYSITSDYTWNWIRQFPGNKLEWMGYISYSGSTSYNPSLKSRMSITRDTSKNQFLLQLNSVTTADTATYYCTRDGPYWHIDVWGAGTTVTVSS VL: DIQMNQSPSSLSASLGDTITITCHASQTINIWLSWYQLKPGNIPKLLIYKASNLHTGVPSRFSGSGSGTGFTLTISSLQPEDIASYYCQQGQSFPYTFGGGTKLEIK | 0.0561 µg/mL | 0.0535 µg/mL | 0.0539 µg/mL | 0.0857 µg/mL
